Measurements published in US20260258137A1 (HARBOUR BIOMED SHANGHAI, published 2026).
Read-outs that look alike come from different tables or passages of the source.

Key:
[1] = molecular target: T1, human PD-L1 on Hep3B cells co-expressing human PD-L1 and OS8 (human, UniProt Q9NZQ7 19-290); assay: cell-based or functional assay
[2] = molecular target: T2, human PD-L1 on CHO-K1 cells (CHO-K1/hPD-L1, Nanjing Genscript, M00543) (human, UniProt Q9NZQ7 19-290); assay: flow cytometry on CHO-K1/hPD-L1 cells
T2 construct: whole, on cells; also called CHO-K1 cells overexpressing human PD-L1; human PD-L1 on the cell surface
T2 sequence (Q9NZQ7 19-290, one chain of several): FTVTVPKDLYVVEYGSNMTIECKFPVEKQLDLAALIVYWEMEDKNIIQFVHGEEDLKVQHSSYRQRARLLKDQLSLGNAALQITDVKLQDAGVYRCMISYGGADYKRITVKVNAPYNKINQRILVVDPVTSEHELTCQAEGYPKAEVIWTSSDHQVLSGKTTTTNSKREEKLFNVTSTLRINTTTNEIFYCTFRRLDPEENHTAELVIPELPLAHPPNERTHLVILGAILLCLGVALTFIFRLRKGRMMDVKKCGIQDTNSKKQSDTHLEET

[3] = molecular target: T3, Human PD-L1 (Acrobiosystems, EP-101-96tests, A001-214) (human, UniProt Q9NZQ7 19-238); assay: competition ELISA: hPD-1-Biotin binding to coated hPD-L1
T3 construct: bought reagent; also called human PD-L1 protein
T3 sequence (Q9NZQ7 19-238 limits assumed): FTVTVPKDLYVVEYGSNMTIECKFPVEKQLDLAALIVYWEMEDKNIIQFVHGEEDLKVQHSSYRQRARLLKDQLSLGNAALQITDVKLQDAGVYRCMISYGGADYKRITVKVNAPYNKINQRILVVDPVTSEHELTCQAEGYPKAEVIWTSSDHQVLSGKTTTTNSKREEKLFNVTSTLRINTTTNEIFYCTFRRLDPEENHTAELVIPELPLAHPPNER

[4] = molecular target: T2, human PD-L1 on CHO-K1 cells …; assay: flow cytometry competition: biotin-hPD-1 binding to CHO-K1/hPD-L1 cells
[5] = molecular target: T4, Human PD-L1-hFc protein (Acrobiosystems, PD1-H5258) (human, UniProt Q9NZQ7 19-238); assay: competition ELISA: hB7-1-Biotin binding to coated hPD-L1-hFc
T4 construct: bought reagent; not shown: human Fc (hFc)
T4 sequence (Q9NZQ7 19-238 limits assumed): as above

[6] = molecular target: T5, Human PD-L1 (Acrobiosystems, PD1-H5229) (human, UniProt Q9NZQ7 19-238); assay: ELISA, coated human PD-L1
T5 construct: bought reagent; also called human PD-L1 protein
T5 sequence (Q9NZQ7 19-238 limits assumed): as above

[7] = molecular target: T2, human PD-L1 on CHO-K1 cells …; assay: flow cytometry competition: biotin-hPD-1 binding to CHO-K1/hPD-L1 cells; remark: listed apart in the source
[8] = molecular target: T6, cynomolgus PD-L1 on CHO-K1 cells (CHO-K1/cynoPD-L1, Nanjing Genscript, M00573) (cynomolgus, UniProt G7PSE7 19-290); assay: flow cytometry on CHO-K1/cynoPD-L1 cells
T6 construct: also called CHO-K1 cells overexpressing cynomolgus PD-L1
T6 sequence (G7PSE7 entry or part of it limits assumed, one chain of several): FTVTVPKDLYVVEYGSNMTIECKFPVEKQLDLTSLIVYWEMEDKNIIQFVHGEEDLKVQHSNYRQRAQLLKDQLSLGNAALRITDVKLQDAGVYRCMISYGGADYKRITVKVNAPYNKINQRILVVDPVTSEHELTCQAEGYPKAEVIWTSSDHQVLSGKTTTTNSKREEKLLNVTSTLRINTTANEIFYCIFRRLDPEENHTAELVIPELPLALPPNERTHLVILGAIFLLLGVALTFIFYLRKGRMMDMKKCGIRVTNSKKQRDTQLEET

[9] = molecular target: T1, human PD-L1 on Hep3B cells …; assay: cell-based or functional assay; remark: listed apart in the source

T1 sequence (Q9NZQ7 19-290): as the sequence (Q9NZQ7 19-290, one chain of several) above

Row | Binder | EC50 (nM), PD-1 / NFAT-luciferase reporter [1] | Maximum fluorescence value (RLU) [1] | EC50 [2] | MFI maximum value [2] | IC50 [3] | Maximum inhibition rate (%) [3] | IC50 [4] | Maximum inhibition rate (%) [4] | IC50 [5] | Maximum inhibition rate (%) [5] | EC50 [6] | IC50 [7] | Maximum inhibition rate (%) [7] | EC50 [8] | MFI maximum value [8] | EC50 (nM), PD-1 / NFAT-luciferase reporter [9] | Maximum fluorescence value (RLU) [9]
1 | PR000067 (antibody, human IgG1, kappa, N297A, V domains shown, fully human recombinant antibody, human IgG1 heavy chain, kappa light chain (IGKV1-5); also called 73G3G9B11) VH: EVQLVESGGGLVQPGGSLRLSCAASGFTFSSYWMSWVRQAPGKGLEWVANIKQDGSEKYYVDSVKGRFTISRDNAKNSLYLQMNSLRAEDTAVYYCARDRAVAGAFDIWGQGTMVTVSS VL: not shown | 0.682 nM | 79800 RLU | 0.456 nM | 7340 MFI | 0.333 nM | 92.9% | 0.894 nM | 91.2% | 0.153 nM | 36.9% |  |  |  |  |  |  | 
2 | PR000070 (antibody, human IgG1, kappa, N297A, V domains shown, fully human recombinant antibody, human IgG1 heavy chain, kappa light chain (IGKV1-5); also called 91G3H5H3) VH: EVQLVESGGGLVQPGGSLRLSCAASGFTFSSYWMSWVRQAPGKGLEWVANIKQDGSEKYYVDSVKGRFTISRDNAKNSLYLQMNSLRAEDTAVYYCARDRAVAGAFDIWGQGTMVTVSS VL: DIQMTQSPSTLSASVGDRVTVTCRASQSIYIWLAWYQQKPGKAPNLLIYKASSLETGVPSRFSGSGSGTEFTLTISSLQPDDFATYYCQQYYGSSRTFGQGTKVEIKR | 0.269 nM | 82700 RLU | 0.21 nM | 7790 MFI | 0.2 nM | 90.6% | 0.449 nM | 90.7% | 0.305 nM | 39.9% | 0.0641 nM |  |  |  |  |  | 
3 | PR000262 (antibody, human IgG1, kappa, N297A, V domains shown, PTM variant of PR000066 (H:G55A); heavy chain human IgG1 (N297A)) VH: EVQLVESGGGLVQPGGSLRLSCAASGFTFSSYWMSWVRQAPGKGLEWVANIKQDASEKYYVDSVKGRFTISRDNAKNSLYLQMNSLRAEDTAVYYCARDRAVAGASAFWGQGTMVTVSS VL: DIQMTQSPSTLSASVGHRVTITCRASQSISIWLAWYQQKPGKAPDLLIYKASSLETGVPSRFSGSGSGTEFTLTISSLQPDDFATYYCQQYYGSSRTFGQGTKVEIKR |  |  |  |  |  |  |  |  |  |  | 0.0338 nM |  |  |  |  |  | 
4 | PR000064 (antibody, human IgG1, kappa, N297A, V domains shown, fully human recombinant antibody, human IgG1 heavy chain, kappa light chain (IGKV1-5); also called 63G11H3G9) VH: EVQLVESGGGLVQPGGSLRLSCAASGFTFSSYWMSWVRQAPGKGLEWVANIKQDGSEKYYVDSVKGRFTISRDNAKNSLYLQMNSLRAEDTAVYYCARDRAVAGAFDIWGQGTMVTVSS VL: DIQMTQSPSTLSTSVGDRVTITCRASQSISIWLAWYQQKPGKAPKLLIYKASSLESGVPSRFSGSGSGTEFTLTISSLQPDDFATYYCQQYYGYSRTFGQGTKVEIKR | 0.533 nM | 81600 RLU | 0.417 nM | 7880 MFI | 0.313 nM | 91.1% | 0.938 nM | 91.5% | 0.284 nM | 35.9% |  |  |  |  |  |  | 
5 | PR000264 (antibody, human IgG1, kappa, N297A, V domains shown, heavy chain human IgG1 (N297A)) VH: EVQLVESGGGLVQPGGSLRLSCAASGFTFSSYWMSWVRQAPGKGLEWVANIKQDASEKYYVDSVKGRFTISRDNAKNSLYLQMNSLRAEDTAVFYCARDRAVAGAFAIWGQGTMVTVSS VL: DIQMTQSPSTLSASVGDRVTITCRASQSIYIWLAWYQQHPGKAPKLLIYKASSLESGVPSRFSGSGSGTEFTLTISSLQPDDFATYFCQQYYGYSRTFGQGTKVEIRR |  |  |  |  |  |  |  |  |  |  | 0.0343 nM |  |  |  |  |  | 
6 | PR000069 (antibody, human IgG1, kappa, N297A, V domains shown, fully human recombinant antibody, human IgG1 heavy chain, kappa light chain (IGKV1-5); also called 85C5E4G3) VH: EVQLVESGGGLVQPGGSLRLSCAASGFTFSSYWMSWVRQAPGKGLEWVANIKQDGSEKYYVDSVKGRFTISRDNAKNSLYLQMNSLRAEDTAVFYCARDRAVAGAFAIWGQGTMVTVSS VL: DIQMTQSPSTLSASVGDRVTITCRASQSIYIWLAWYQQHPGKAPKLLIYKASSLESGVPSRFSGSGSGTEFTLTISSLQPDDFATYFCQQYYGYSRTFGQGTKVEIRR | 0.271 nM | 83300 RLU | 0.312 nM | 7530 MFI | 0.313 nM | 90.7% | 0.836 nM | 92.3% | 0.28 nM | 33% | 0.0637 nM |  |  |  |  |  | 

Continued, values first:

Row | EC50 (nM), PD-1 / NFAT-luciferase reporter [1] | Maximum fluorescence value (RLU) [1] | EC50 [2] | MFI maximum value [2] | IC50 [3] | Maximum inhibition rate (%) [3] | IC50 [4] | Maximum inhibition rate (%) [4] | IC50 [5] | Maximum inhibition rate (%) [5] | EC50 [6] | IC50 [7] | Maximum inhibition rate (%) [7] | EC50 [8] | MFI maximum value [8] | EC50 (nM), PD-1 / NFAT-luciferase reporter [9] | Maximum fluorescence value (RLU) [9] | Binder
7 |  |  | 0.412 nM | 7660 MFI | 0.432 nM | 99% |  |  | 0.312 nM | 43.8% |  |  |  |  |  |  |  | PR000065 (antibody, human IgG1, kappa, N297A, V domains shown, fully human recombinant antibody, human IgG1 heavy chain, kappa light chain (IGKV1-5); also called 67C1F7G6) VH: EVQLVESGGGLVQPGGSLRLSCAASGFTFSSYWMSWVRQAPGKGLEWVANIKQDGSEKYYVDSVKGRFTISRDNAKNSLYLQMNSLRAEDTAVYYCARDRAVAGAFDIWGQGTMVTVSS VL: DIQMTQSPSTLSASVGDRVTITCRASQSIFIWLAWYQQKPGKAPNLLIYKASSLETGVPSRFSGSGSGTEFTLTISSLQPDDFATYYCQQYYGSSRTFGQGTKVEIKR
8 |  |  |  |  |  |  |  |  |  |  | 0.0321 nM |  |  |  |  |  |  | PR000263 (antibody, human IgG1, kappa, N297A, V domains shown, heavy chain human IgG1 (N297A)) VH: EVQLVESGGGLVQPGGSLRLSCAASGFTFSSYWMSWVRQAPGKGLEWVANIKQEGSEKYYVDSVKGRFTISRDNAKNSLYLQMNSLRAEDTAVFYCARDRAVAGAFAIWGQGTMVTVSS VL: DIQMTQSPSTLSASVGDRVTITCRASQSIYIWLAWYQQHPGKAPKLLIYKASSLESGVPSRFSGSGSGTEFTLTISSLQPDDFATYFCQQYYGYSRTFGQGTKVEIRR
9 | 0.293 nM | 78000 RLU | 0.292 nM | 7630 MFI | 0.237 nM | 89.8% | 0.746 nM | 92.5% | 0.253 nM | 47.6% | 0.0474 nM |  |  |  |  |  |  | PR000072 (antibody, human IgG1, kappa, N297A, V domains shown, fully human recombinant antibody, human IgG1 heavy chain, kappa light chain (IGKV1-5); also called 98E11H1C9) VH: EVQLVESGGGLVQPGGSLRLSCAASGFTFSSYWMSWVRQAPGKGLEWVANIKQDGSEKYYGDSVKGRFTISRDNAKNSLYLQMNSLRAEETAVYYCARDRAVAGASDIWGQGTMVTVSS VL: DIQMTQSPSTLSASVGDRVTITCRASQSISSWLAWYQQKPGKAPNLLIYKASSLETGVPSRFSGSGSGTEFTLTISSLQPDDFATYYCQQYYGYSRTFGQGTKVEIKR
10 | 2.71 nM | 79700 RLU | 0.521 nM | 6890 MFI | 0.448 nM | 89% | 0.987 nM | 91.6% | 0.351 nM | 37.5% |  |  |  |  |  |  |  | PR000071 (antibody, human IgG1, kappa, N297A, V domains shown, fully human recombinant antibody, human IgG1 heavy chain, kappa light chain (IGKV1-5); also called 95C7C4A9) VH: EVQLVESGGGLVQPGGSLRLSCAASGFTFSSYWMSWVRQAPGKGLEWVANIKQDGSEKYYVDSVKGRFTISRDNAKNSQYLQMNSLRAEDTAVYYCARDRAVAGASDIWGQGTMVTVSS VL: not shown
11 | 0.603 nM | 83300 RLU | 0.326 nM | 7640 MFI | 0.288 nM | 91.6% | 0.853 nM | 91.4% | 0.199 nM | 35% |  |  |  |  |  |  |  | PR000068 (antibody, human IgG1, kappa, N297A, V domains shown, fully human recombinant antibody, human IgG1 heavy chain, kappa light chain (IGKV1-5); also called 82F8H7E1) VH: EVQLVESGGGLVQPGGSLRLSCAASGFTFSSYWMSWVRQAPGKGLEWVANIKQDGSEKYYVDSVKGRFTISRDNAKNSLYLQMNSLRAEDTAVYYCARDRPVAGASDIWGQGTMVTVSS VL: not shown
12 |  |  |  |  |  |  |  |  |  |  | 0.0462 nM | 1.04 nM | 91% | 0.775 nM | 22400 MFI | 0.796 nM | 43000 RLU | PR000267 (antibody, human IgG1, kappa, N297A, V domains shown, heavy chain human IgG1 (N297A)) VH: EVQLVESGGGLVQPGGSLRLSCAASGFTFSSYWMSWVRQAPGKGLEWVANIKQEGSEKYYGDSVKGRFTISRDNAKNSLYLQMNSLRAEETAVYYCARDRAVAGASDIWGQGTMVTVSS VL: DIQMTQSPSTLSASVGDRVTITCRASQSISSWLAWYQQKPGKAPNLLIYKASSLETGVPSRFSGSGSGTEFTLTISSLQPDDFATYYCQQYYGYSRTFGQGTKVEIKR
13 | 0.292 nM | 85900 RLU | 0.255 nM | 7860 MFI | 0.35 nM | 93% | 0.539 nM | 91.8% | 0.198 nM | 47.2% | 0.0189 nM |  |  |  |  |  |  | PR000066 (antibody, human IgG1, kappa, N297A, V domains shown, fully human recombinant antibody, human IgG1 heavy chain, kappa light chain (IGKV1-5); also called 69B8G8C2) VH: EVQLVESGGGLVQPGGSLRLSCAASGFTFSSYWMSWVRQAPGKGLEWVANIKQDGSEKYYVDSVKGRFTISRDNAKNSLYLQMNSLRAEDTAVYYCARDRAVAGASAFWGQGTMVTVSS VL: DIQMTQSPSTLSASVGHRVTITCRASQSISIWLAWYQQKPGKAPDLLIYKASSLETGVPSRFSGNGSGTEFTLTISSLQPDDFATYYCQQYYGSSRTFGQGTKVEIKR
14 |  |  |  |  |  |  |  |  |  |  | 0.0385 nM |  |  |  |  |  |  | PR000261 (antibody, human IgG1, kappa, N297A, V domains shown, PTM variant of PR000066 (H:D54E); heavy chain human IgG1 (N297A)) VH: EVQLVESGGGLVQPGGSLRLSCAASGFTFSSYWMSWVRQAPGKGLEWVANIKQEGSEKYYVDSVKGRFTISRDNAKNSLYLQMNSLRAEDTAVYYCARDRAVAGASAFWGQGTMVTVSS VL: DIQMTQSPSTLSASVGHRVTITCRASQSISIWLAWYQQKPGKAPDLLIYKASSLETGVPSRFSGSGSGTEFTLTISSLQPDDFATYYCQQYYGSSRTFGQGTKVEIKR
